Assay [1] concerns the target native (naturally occurring) human IL-13 released from HDLM-2 cells (human) (UniProt P35225). Description: cell-based or functional assay.
The target of assay [2] is human IL-13 (recombinant, bacterially derived, Peprotech) (human) (UniProt P35225). Kind of assay: cell-based or functional assay.
Chain of human IL-13 (recombinant, bacterially derived, Peprotech) (human) (P35225 other isoform, or with tags, fused parts or gaps): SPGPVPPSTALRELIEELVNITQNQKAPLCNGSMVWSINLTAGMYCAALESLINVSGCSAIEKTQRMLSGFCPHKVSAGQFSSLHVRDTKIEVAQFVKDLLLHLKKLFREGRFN

Chain of native (naturally occurring) human IL-13 released from HDLM-2 cells (human) (P35225 other isoform, or with tags, fused parts or gaps): as above

As to “JES10-5A2 (commercial anti-human IL-13 antibody, rat IgG1, Biosource)”, the IC50, HDLM-2 cell proliferation assay in assay [1] was 10.7 nM. In assay [2], the IC50, TF-1 cell proliferation assay was determined as 0.471 nM and the IC50, eotaxin release from NHLF was 0.623 nM.
Regarding “B-B13 (commercial anti-human IL-13 antibody, mouse IgG1, Euroclone)”, the IC50, HDLM-2 cell proliferation assay in assay [1] stood at 16.7 nM. For the same substance, in assay [2], the IC50, TF-1 cell proliferation assay is 1.02 nM and the IC50, eotaxin release from NHLF turned out to be 0.219 nM.
